Measured values taken from PMC2409314, “Expression of zebrafish pax6b in pancreas is regulated by two enhancers containing highly conserved cis-elements bound by PDX1, PBX and PREP factors”.

Experiments:
Assay in all cases: EMSA; 2 ug nuclear extract or 1 ul ivt protein, 0.1 ng 32P ds oligo, 1 ug poly(dI-dC); antiserum preincubation 15 min at room temperature; buffer, salt and pH not given (by reference)
PDX1 (STF-1) = PDX1 (STF-1) (UniProt P52947 1-283); conditions: protein: recombinant; label: 32P (Klenow); only top strand given; 5' GATC end, Klenow labelled
Chain of PDX1 (STF-1) (P52947 whole entry, canonical isoform): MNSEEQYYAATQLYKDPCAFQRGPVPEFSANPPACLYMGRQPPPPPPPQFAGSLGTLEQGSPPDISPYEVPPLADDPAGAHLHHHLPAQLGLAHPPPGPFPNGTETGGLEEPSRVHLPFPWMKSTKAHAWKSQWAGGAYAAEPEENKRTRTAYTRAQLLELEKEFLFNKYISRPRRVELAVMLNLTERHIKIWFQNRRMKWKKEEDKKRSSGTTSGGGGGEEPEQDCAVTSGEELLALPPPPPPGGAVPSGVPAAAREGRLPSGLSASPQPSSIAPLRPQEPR

[1] = target: T1, PBX1a (long isoform);PREP1 (;, UniProt P41778;P55347 1-430;1-436, |); conditions: protein: ivt;ivt; tags: ;; copies: 1;1; label: 32P (Klenow); only top strand given; 5' GATC end, Klenow labelled
T1 sequence 1: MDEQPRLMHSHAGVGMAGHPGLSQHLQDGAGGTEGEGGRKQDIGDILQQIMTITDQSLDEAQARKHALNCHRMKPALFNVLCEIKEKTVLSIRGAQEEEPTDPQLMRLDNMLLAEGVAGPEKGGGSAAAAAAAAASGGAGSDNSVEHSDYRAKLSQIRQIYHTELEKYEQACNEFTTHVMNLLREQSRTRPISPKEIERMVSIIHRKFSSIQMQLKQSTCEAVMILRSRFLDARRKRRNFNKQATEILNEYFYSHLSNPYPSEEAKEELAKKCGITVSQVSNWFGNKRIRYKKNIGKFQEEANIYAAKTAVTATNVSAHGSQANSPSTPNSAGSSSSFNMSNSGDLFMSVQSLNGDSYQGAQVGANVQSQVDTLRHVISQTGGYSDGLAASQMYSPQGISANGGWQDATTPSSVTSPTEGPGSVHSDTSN
T1 sequence 2: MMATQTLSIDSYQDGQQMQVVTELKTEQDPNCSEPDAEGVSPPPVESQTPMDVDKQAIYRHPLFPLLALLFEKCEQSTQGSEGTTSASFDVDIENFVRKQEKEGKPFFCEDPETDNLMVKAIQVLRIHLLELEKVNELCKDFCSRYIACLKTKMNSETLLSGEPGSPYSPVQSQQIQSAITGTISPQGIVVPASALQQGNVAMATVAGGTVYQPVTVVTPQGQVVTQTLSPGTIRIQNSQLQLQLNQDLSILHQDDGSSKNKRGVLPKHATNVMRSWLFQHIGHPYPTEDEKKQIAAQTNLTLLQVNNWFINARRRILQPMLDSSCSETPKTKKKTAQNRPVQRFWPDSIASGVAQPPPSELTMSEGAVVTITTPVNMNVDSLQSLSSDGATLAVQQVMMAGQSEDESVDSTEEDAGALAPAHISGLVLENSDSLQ

[2] = target: PBX1a (long isoform);PREP1;PDX1 (STF-1) (;;, UniProt P41778;P55347;P52947 1-430;1-436;1-283, ||); conditions: protein: ivt;ivt;recombinant; tags: ;;; copies: 1;1;1; label: 32P (Klenow); only top strand given; 5' GATC end, Klenow labelled
Chain of PBX1a (long isoform);PREP1;PDX1 (STF-1) (P52947 whole entry, canonical isoform, one chain of several): as the sequence (P52947 whole entry, canonical isoform) above

B1: PC3b (dsDNA)
DNA 1: GATCTAGCTCTTAATTGTGGTT
DNA 2: AACCACAATTAAGAGCTAGATC
PDX1 (STF-1)
  binding result: binds

B2: PA1b (dsDNA)
DNA 1: GATCGCATCACGATCAATCACAGCGCT
DNA 2: AGCGCTGTGATTGATCGTGATGCGATC
[1]
  binding result: binds
[2]
  binding result: binds
